Test results taken from US20160178645A1 (University of California, published 2016).

Biological target: T1, human Aβ1-42 oligomers (human, UniProt P05067 672-713, fluorescently labeled in the TIRF imaging (HiLyte Fluor 647-labeled peptide bought, paragraph 100; 'AlexFlour647-conjugated' in paragraph 102); position not stated)
T1 construct: domain: Aβ1-42; Preformed oligomers; only the Aβ1-42 peptide was used; also called labeled Aβ1-42 oligomers; HiLyte Fluor 647-labeled Aβ1-42
Experiment: TIRF single molecule imaging with photobleaching of aggregates formed in Httl4A2.6 lysates (data not shown)
Description: Httl4A2.6 cells were treated with 0.5 μM of Aβ1-40, Aβ1-42, alpha-synuclein, and A53T alpha-synuclein, Alzheimer's disease (AD), and Parkinson's disease—associated oligomers, in the same manner as polyQ seeds. No significant enhancement of intracellular mHttex 1-GFP aggregates was detected (data not shown). Confirming results were obtained from filter retardation-GFP immunoblotting following cell-free aggregation assays; no notable changes in mHttex1 aggregation were found in the cell lysates with up to 5 μM of Aβ1-40, Aβ1-42, alpha-synuclein, and A53T alpha-synuclein oligomeric seeds (data not shown). These observations were further corroborated by the total internal reflection microscopy (TIRF) single molecule imaging results based on photobleaching of mHttex1-GFP aggregates formed in Httl4A2.6 lysates seeded with either AlexFlour647-conjugated polyQ or Aβ1-42 oligomers (data not shown). In contrast to the polyQ oligomers, which were mostly linked with mHttex1-GFP aggregates from photobleaching imaging, few labeled Aβ1-42 oligomers overlapped with GFP fluorescence from the mHttex1-GFP aggregates.

T1 sequence (P05067 672-713 limits assumed): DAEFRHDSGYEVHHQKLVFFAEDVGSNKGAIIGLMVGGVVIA

B1: mHttex1-GFP (truncated expanded repeat Httn exon 1 protein fused at the C-terminus to EGFP) (other)
chain: MATLEKLMKAFESLKSFQQQQQQQQQQQQQQQQQQQQQQQQQQQQQQQQQQQQQQQQQQQQQQQQQQQQQQQQQQQQQQQQQQQQQQQQQQQQQQQQQQQQQQQQQQQQQQQQQQQQQQ
notes: Expressed in Httl4A2.6 inducible PC12 cells after Ponasterone A induction; tested inside cells or in cell lysate supernatants; No linker between Httn part and EGFP is described; also called N17-103Q-EGFP; GFP-tagged mHtt exon 1 protein; not shown: enhanced green fluorescent protein (EGFP), fused at the C-terminus; EGFP is an eng
binding result: no binding
